# B1: extended anti-EGFR RNA aptamer hybridized to surface-anchored capture ssDNA (mixed)
# RNA: GGCGCUCCGACCUUAGUCUCUGUGCCGCUAUAAUGCACGGAUUUAAUCGCCGUAGAAAAGCAUGUCAAAGCCGGAACCGUGUAGCACAGCAGAGAAUUAAAUGCCCGCCAUGACCAG
# DNA: CTGGTCATGGCGGGCATTTAATTC
# modifications: 5'-amine on DNA strand S3
# B2: extended mutant (scrambled) aptamer hybridized to surface-anchored capture ssDNA (mixed)
# RNA: GGCGCUCCGACCUUAGUCUCUGUUCCCACAUCAUGCACAAGGACAAUUCUGUGCAUCCAAGGAGGAGUUCUCGGAACCGUGUAGCACAGCAGAGAAUUAAAUGCCCGCCAUGACCAG
# DNA: CTGGTCATGGCGGGCATTTAATTC
# modifications: 5'-amine on DNA strand S3
# Columns and labels:
# EGF (Homo sapiens) = EGF (Homo sapiens) (UniProt P01133); experiment: functional ELISA; conditions: cited from earlier work
# [1] = molecular target: T1, recombinant human EGFR/ErbB1 Fc Chimera (human, UniProt P00533 25-645); experiment: surface capture, Sypro Ruby fluorescence
# [2] = molecular target: T1, recombinant human EGFR/ErbB1 Fc Chimera; experiment: nanogap break-junction I-V measurement
# EGF (Homo sapiens), sequence (P01133 971-1023): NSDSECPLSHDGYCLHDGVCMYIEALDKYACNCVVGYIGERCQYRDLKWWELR
molecule,measurement,setting,value
EGFR/ErbB1 Fc chimera (from UniProt P00533),Kd,EGF (Homo sapiens),< 8 nM
B1,binding result,[1],binds
B2,binding result,[2],no binding
